According to patent publication US11844843 (DYNE THERAPEUTICS, dated 2023):

Legend:
[1] = biological target: T1, recombinant human TfR1 (transferrin receptor protein 1) (human, UniProt P02786 89-760); experiment: surface plasmon resonance
T1 construct: Recombinant protein in SPR and ELISA; they were assigned to this molecule; also called hTfR1; huTfR1

[2] = biological target: T2, recombinant cynomolgus monkey (Macaca fascicularis) TfR1 (cynomolgus monkey (Macaca fascicularis), UniProt Q5RDH6 87-760 (Pongo abelii entry), limits assumed); experiment: surface plasmon resonance
T2 construct: Recombinant protein; also called cTfR1; cyTfR1
T2 chain: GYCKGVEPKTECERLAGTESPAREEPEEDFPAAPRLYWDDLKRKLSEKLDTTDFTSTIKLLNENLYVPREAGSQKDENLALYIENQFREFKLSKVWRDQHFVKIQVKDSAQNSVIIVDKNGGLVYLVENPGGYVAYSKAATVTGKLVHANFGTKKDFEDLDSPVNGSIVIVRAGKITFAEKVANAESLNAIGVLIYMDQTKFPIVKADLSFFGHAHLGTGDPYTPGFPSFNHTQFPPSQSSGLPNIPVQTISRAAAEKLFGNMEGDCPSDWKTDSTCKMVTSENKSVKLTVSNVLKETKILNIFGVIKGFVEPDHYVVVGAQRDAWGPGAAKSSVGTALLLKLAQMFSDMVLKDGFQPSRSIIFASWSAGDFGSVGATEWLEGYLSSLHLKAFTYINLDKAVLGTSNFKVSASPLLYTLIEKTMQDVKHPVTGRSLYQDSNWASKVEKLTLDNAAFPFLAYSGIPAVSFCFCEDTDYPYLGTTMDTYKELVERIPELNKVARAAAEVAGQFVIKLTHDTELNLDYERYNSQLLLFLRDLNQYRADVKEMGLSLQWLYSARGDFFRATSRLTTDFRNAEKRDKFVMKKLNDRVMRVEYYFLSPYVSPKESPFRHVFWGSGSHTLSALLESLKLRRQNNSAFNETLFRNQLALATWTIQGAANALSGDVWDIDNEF

[3] = biological target: T1, recombinant human TfR1 (transferrin …); experiment: Biacore, d0; TfR1 species not stated
[4] = biological target: T1, recombinant human TfR1 (transferrin …); experiment: Biacore, d25; TfR1 species not stated
[5] = biological target: T1, recombinant human TfR1 (transferrin …); experiment: ELISA on hTfR1, unconjugated Fab, % normalized RFUs
[6] = biological target: T2, recombinant cynomolgus monkey (Macaca …); experiment: ELISA on cTfR1, unconjugated Fab, % normalized RFUs
[7] = biological target: T1, recombinant human TfR1 (transferrin …); experiment: kinetic analysis (Biacore), Table 7; TfR1 species not stated
[8] = biological target: T1, recombinant human TfR1 (transferrin …); experiment: ELISA, recombinant TfR1 coated, unconjugated Fab (row 'Fab binding affinity ELISA')
[9] = biological target: T2, recombinant cynomolgus monkey (Macaca …); experiment: as above
[10] = biological target: T1, recombinant human TfR1 (transferrin …); experiment: Table 14, unconjugated Fab, d0; method not named (values equal ELISA row of Table 13)
[11] = biological target: T2, recombinant cynomolgus monkey (Macaca …); experiment: as above
recombinant rat TfR1 = biological target: T3, recombinant rat TfR1 (rat, UniProt Q99376 89-761, limits assumed); experiment: ELISA on plate-coated recombinant rat TfR1, fluorescent anti-(H+L) IgG secondary
T3 construct: Recombinant protein coated on ELISA plates
Description: (§1) Serial dilutions of the Fab were added to plates precoated with recombinant human, cynomolgus monkey, mouse, or rat TfR1. After a short incubation, binding of the Fab was quantified by addition of a fluorescently tagged anti-(H+L) IgG secondary antibody and measurement of fluorescence intensity at 495 nm excitation and 520 nm emission.

recombinant mouse TfR1 = biological target: T4, recombinant mouse TfR1 (mouse, UniProt Q62351 89-763); experiment: ELISA on plate-coated recombinant mouse TfR1, fluorescent anti-(H+L) IgG secondary
T4 construct: Recombinant protein coated on ELISA plates
Description: as §1

[12] = biological target: T1, recombinant human TfR1 (transferrin …); experiment: ELISA on plate-coated recombinant hTfR1, fluorescent anti-(H+L) IgG-A488 detection, % normalized RFUs
Description: To measure binding of humanized anti-TfR antibodies to TfR1, ELISAs were conducted. High binding, black, flat bottom, 96 well plates (Corning #3925) were first coated with 100 μL/well of recombinant huTfR1 at 1 μg/mL in PBS and incubated at 4° C. overnight. Wells were emptied and residual liquid was removed. Blocking was conducted by adding 200 μL of 1% BSA (w/w) in PBS to each well. Blocking was allowed to proceed for 2 hours at room temperature on a shaker at 30) rpm. After blocking, liquid was removed and wells were washed three times with 300 μL of TBST. Anti-TfR1 antibodies were then added in 0.5% BSA/TBST in triplicate in an 8 point serial dilution (dilution range 5 μg/mL-5 ng/mL). A positive control and isotype controls were also included on the ELISA plate. The plate was incubated at room temperature on an orbital shaker for 60 minutes at 300 rpm, and the plate was washed three times with 300 μL of TBST. Anti-(H+L)IgG-A488 (1:500) (Invitrogen #A11013) was diluted in 0.5% BSA in TBST, and 100 μL was added to each well. The plate was then allowed to incubate at room temperature for 60 minutes at 300 rpm on orbital shaker. The liquid was removed and the plate was washed four times with 300 μL of TBST. […] Data was recorded and analyzed for $EC50$. […]

T3 sequence (Q99376 89-761 limits assumed): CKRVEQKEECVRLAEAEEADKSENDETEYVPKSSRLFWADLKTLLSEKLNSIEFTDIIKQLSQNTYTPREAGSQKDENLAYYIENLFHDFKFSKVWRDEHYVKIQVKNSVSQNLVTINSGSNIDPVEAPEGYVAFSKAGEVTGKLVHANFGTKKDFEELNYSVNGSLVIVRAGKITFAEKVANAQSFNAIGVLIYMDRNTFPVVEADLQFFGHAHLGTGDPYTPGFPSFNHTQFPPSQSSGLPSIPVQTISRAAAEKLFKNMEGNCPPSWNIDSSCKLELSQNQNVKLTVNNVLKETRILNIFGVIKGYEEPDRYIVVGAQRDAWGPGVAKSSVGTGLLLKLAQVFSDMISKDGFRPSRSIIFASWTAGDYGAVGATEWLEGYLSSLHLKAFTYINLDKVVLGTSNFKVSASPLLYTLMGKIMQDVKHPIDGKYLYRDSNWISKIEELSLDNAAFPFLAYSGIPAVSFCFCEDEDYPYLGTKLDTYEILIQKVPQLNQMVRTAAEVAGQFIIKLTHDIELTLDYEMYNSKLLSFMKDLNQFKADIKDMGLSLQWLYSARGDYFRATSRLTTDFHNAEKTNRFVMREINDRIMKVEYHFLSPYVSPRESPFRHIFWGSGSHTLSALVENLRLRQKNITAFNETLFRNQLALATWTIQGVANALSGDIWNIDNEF
T4 sequence (Q62351 89-763 limits assumed): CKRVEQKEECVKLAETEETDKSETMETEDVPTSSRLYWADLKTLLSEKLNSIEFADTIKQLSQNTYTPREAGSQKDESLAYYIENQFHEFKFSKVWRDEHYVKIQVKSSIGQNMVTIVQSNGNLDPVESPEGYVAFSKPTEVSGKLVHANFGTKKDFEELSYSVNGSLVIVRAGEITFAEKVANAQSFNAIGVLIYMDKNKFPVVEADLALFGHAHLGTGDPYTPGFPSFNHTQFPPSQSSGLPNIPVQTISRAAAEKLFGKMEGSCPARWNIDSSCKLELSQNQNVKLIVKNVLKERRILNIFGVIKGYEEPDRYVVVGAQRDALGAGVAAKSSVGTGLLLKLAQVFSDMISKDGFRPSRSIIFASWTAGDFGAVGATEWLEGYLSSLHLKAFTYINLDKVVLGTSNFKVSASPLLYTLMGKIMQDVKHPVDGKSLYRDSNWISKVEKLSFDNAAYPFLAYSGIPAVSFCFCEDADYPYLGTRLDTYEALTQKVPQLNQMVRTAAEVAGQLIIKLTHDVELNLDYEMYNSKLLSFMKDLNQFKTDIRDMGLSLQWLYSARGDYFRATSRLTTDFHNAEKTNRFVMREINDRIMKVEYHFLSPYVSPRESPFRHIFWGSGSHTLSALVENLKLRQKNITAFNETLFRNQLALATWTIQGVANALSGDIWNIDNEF

B1: humanized anti-TfR Fab 3M12 VH4/Vκ3 (Fab, V domains shown)
VH: QVQLQESGPGLVKPSQTLSLTCTVTGYSITSGYYWNWIRQPPGKGLEWIGYITFDGANNYNPSLKNRVSISRDTSKNQFSLKLSSVTAEDTATYYCTRSSYDYDVLDYWGQGTTVTVSS
VL: DIQMTQSPSSLSASVGDRVTITCRASQDISNFLNWYQQKPGQPVKLLIYYTSRLHSGVPSRFSGSGSGTDFTLTISSLQPEDFATYYCQQGHTLPYTFGQGTKLEIKR
notes: also called 3M12 (VH4/Vk3); anti-TfR Fab 3M12 VH4/Vk3
A Kd [1] of 0.768 nM, a koff [1] of 0.000127 s⁻¹ and a kon [1] of 166000 M⁻¹ s⁻¹ were found for B1 in this work. For the same binder, the Kd [2] was 5.18 nM, the koff [2] was 0.000476 s⁻¹ and the kon [2] was 91900 M⁻¹ s⁻¹. For the same binder, the Kd [3] was 0.341 nM, the Kd [4] was 0.486 nM and the EC50 [5] was 2.1 nM. It also gave an EC50 [6] of 9.9 nM, a Kd [7] of 0.341 nM and a koff [7] of 8.61e-05 s⁻¹. It also gave a kon [7] of 252000 M⁻¹ s⁻¹, an EC50 [8] of 0.5 nM and an EC50 [9] of 2.2 nM. The Binding affinity [10] was 0.5 nM, the Binding affinity [11] was 2.2 nM and the binding result (recombinant rat TfR1) was “no binding (tested: 500 nM)”. The binding result (recombinant mouse TfR1) was “no binding (tested: 500 nM)” and the EC50 [12] was 2.1 nM.
